Assay results as given in doi:10.1101/2023.01.07.523125.

Target: human Slack channel (Slo2.2, KCNT1) (human) (UniProt Q5JUK3)
Assay: cryo-EM structure

“human Slack channel (Slo2.2, KCNT1) (from UniProt Q5JUK3 1-1230) (natural protein)” was tested, and the stoichiometry N was 4.
